One molecule from patent US20250154215A1, “PHARMACEUTICAL COMPOSITION FOR TREATING COLITIS OR COLORECTAL CANCER COMPRISING COLON-TARGETED S100A8/A9-DERIVED SPECIFIC PEPTIDE” (Industry-University Cooperation Foundation Hanyang …, priority 2023, published 2025) can be followed below.

Series [1] has as its system OxaR-HCT116. Nature of the series: Co-IP and Western blot in parental and OxaR-HCT116 cells stimulated with rS100A8/9. Type of series: cell-based. The method, then:
FIGS. 11A-11F show rCT-S100A8/A9 ameliorated oxaliplatin-resistant HCT116 xenograft tumor growth. […] Each vertical bar represents the mean±SD of cell viability at each dose. Data is shown as the mean±SD of six experiments. […] WCLs were used for IB including αTLR4, αRAGE, αS100A8, αS100A9, or αActin. […] HCT116 cells were injected subcutaneously into the flanks of nude mice. Tumor length and width were measured using calipers, and tumor volume was calculated every 3 days for 30 days. Representative images of tumors from mice treated with rCT-S100A8/9 on day 15 (middle). Statistical significance was determined by two-way analysis of variance (ANOVA) with Tukey's post hoc test. *P<0.05, ***P<0.001 compared to rVehicle. […] WCLs were used for IB including αTLR4, αRAGE, αS100A8, αS100A9, or αActin. […] Tumors were stained with H&E. Data is representative of seven independent experiments with similar results (FIGS. 11B, 11C, and 11E);
293T, BMDMs, and THP-1 cells were treated as indicated and processed for analysis by GST pulldown, Western blotting, and co-IP analysis. For GST pulldown, 293T cells were harvested and lysed in an NP-40 buffer including a complete protease inhibitor cocktail (Roche, Basel, Switzerland). After centrifugation, the supernatant was pre-cleared using protein A/G beads for two hours at 4° C. The pre-cleared lysates were mixed with a 50% slurry of glutathione-conjugated Sepharose beads (Amersham Biosciences, Amersham, UK), and binding reactions were performed for four hours at 4° C. by incubating the lysates at 4° C. The precipitate was extensively washed with a lysis buffer. Proteins bound to the glutathione beads were eluted by boiling for five minutes in a sodium dodecyl sulfate (SDS) loading buffer. For IP, cells were harvested and lysed in an NP-40 buffer supplemented with a complete protease inhibitor cocktail (Roche, Switzerland). After pre-clearing with protein A/G agarose beads for one hour at 4° C., whole cell lysates were used for IP using the indicated antibodies. Typically, 1 to […] of a commercial antibody was added to 1 ml of the cell lysate, and the resulting mixture was incubated for 8 to 12 hours at 4° C. After adding protein A/G agarose beads for six hours, immunoprecipitates were extensively washed with a lysis buffer and eluted with an SDS loading buffer by boiling for five minutes. For immunoblotting (IB), polypeptides were analyzed by SDS-polyacrylamide gel electrophoresis and transferred to polyvinylidene difluoride (PVDF) membranes (Bio-Rad, Hercules, CA, USA). Immunodetection was performed using specific antibodies. Antibody binding was visualized by chemiluminescence (ECL; Millipore, Burlington, MA, USA) and detected using a Vilber chemiluminescence analyzer (Fusion SL 3; Vilber Lourmat). […]
On the technique in general: A western blot detects proteins with antibodies after separation by electrophoresis.

For series [2], the system named is BMDMs. Type of series: cell-based, mouse. The protocol: FIGS. 5A and 5B show the drug-like properties of rCT-S100A8/A9. […] Bacteria-purified 6×His-rCT-S100A8/9, rVehicle or rCT was analyzed by Coomassie staining or IB using αHis (bottom, left). BMDMs were incubated with rVehicle, rCT, or rCT-S100A8/9 for the indicated times and at the indicated concentrations, and then cell viability was measured by MTT assay (bottom, right). […] HLM, human liver microsomes; CYP, cytochrome […], arrival time; AUClast, total area under the plasma concentration-time curve from time 0 to the time of the last measurement; Cmax, maximum plasma concentration;

Series [3] is described as follows: DSS-induced acute colitis mouse model. The format is in vivo, mice. The method, then:
DSS-induced acute or chronic colitis and AOM/DSS CRC mouse models were prepared using 6-week-old C57BL/6 female mice (Samtako Bio, Osan, Korea). To assess the induction of acute colitis, mice were exposed ad libitum to 3% (w/v) dextran sodium sulfate (molecular weight: 36-50 kDa, MP Biomedicals, Santa Ana, CA, USA) dissolved in drinking water. The mouse models are illustrated in FIGS. 7A, 5E, and 6A. DSS solutions were prepared every two days. […] The humane endpoint for weight loss (requiring euthanasia) was 20% (compared to the original body weight of an animal). Without an approved exception request, body weight loss could not exceed 20%.
The clinical score of colitis was obtained by measuring body weight, fecal occult blood or total blood loss, and stool consistency every other day during the induction of colitis. The clinical score were assessed by two trained investigators who were randomly selected. For immunohistochemical analysis of tissue sections, mouse distal colon tissues were fixed in 10% formalin and embedded in paraffin. Paraffin sections ([…]) were cut and stained with H&E. Histopathological scoring was performed by a certified pathologist (Min-Kyung Kim, Department of Pathology, Kim Min-Kyung Pathology Clinic, Seoul, Korea) who scored each organ section independently without prior knowledge of the treatment group.
The therapeutic efficacy of rCT-S100A8/A9 on DSS-induced acute colitis in mice was evaluated. After colitis was induced by DSS, the mice were intraperitoneally injected with rCT-S100A8/A9 (50 μg/kg) once daily for 6, 7, or 8 days, and sacrificed on day 12 to evaluate the effect of treatment frequency (FIG. 7A, top). […] Next, the length of the colon, which is an indicator of colitis, was evaluated.

[4] abbreviates: parental and OxaR-HCT116 cells, Western blot.
The mark [5] stands for this setting: vs rVehicle or rCT-treated group.

“Also recorded” adds a separate entry of the source.

B1: TWYKIAFQRNRKTWYKIAFQRNRKTWYKIAFQRNRKTWYKIAFQRNRKTWYKIAFQRNRKGGFLVIKGGAHKSHKGGITIITFGGGHHGGFLVIKGGAHKSHKGGITIITFGGGHHGGFLVIKGGAHKSHKGGITIITFGGGHHGG (protein)
chain: TWYKIAFQRNRKTWYKIAFQRNRKTWYKIAFQRNRKTWYKIAFQRNRKTWYKIAFQRNRKGGFLVIKGGAHKSHKGGITIITFGGGHHGGFLVIKGGAHKSHKGGITIITFGGGHHGGFLVIKGGAHKSHKGGITIITFGGGHHGG
modifications: N-terminal 6xHis tag
On to B1, for which the S100-PRR interactions entry in series [1] (OxaR-HCT116, recombinant S100A8/A9 stimulated, 10, 20, 50 μg/ml) is reported as “inhibited by increasing the concentration of rCT-S100A8/A9”. Moreover, the “phosphorylation of EGFR, AKT, and NF-κB” value in series [1] (parental and OxaR CRC cells) is recorded as “decreased”. In series [1] (setting [4]), the “expression of epithelial marker (E-cadherin)” value is on record as “increase”; the “expression of mesenchymal markers (N-cadherin and vimentin)” value is “significant decrease”. The cell viability entry in series [2] was “no significant effect on cell viability”. For the same molecule, the survival rate entry in series [3] (50 μg/kg i.p. once daily, 3% DSS) is listed as “significantly increased”. Further, in series [3] (3% DSS acute colitis), the “colon damage (H&E staining)” value is “reduced according to the frequency of rCT-S100A8/A9 treatment; also recorded: alleviated” and the colon length entry is given as “recovered in proportion to the number of rCT-S100A8/A9 treatments”. Also, the “levels of pro-inflammatory cytokines (TNF-α, IL-1β, IL-6, IL-18) and MPO activity in colonic homogenates” value in series [3] (DSS colitis) is “significantly reduced; also recorded: successfully reduced the secretion of IL-1β and IL-18”. In addition, the “TLR4 (or RAGE)-S100A8 (or S100A9) and NLRP3-ASC interactions in colon” value in series [3] (colon co-IP, DSS treatment) was “decreased”. In series [3] (setting [5]), the body weight loss result is “less body weight loss” and the colitis scores result is on record as “lower colitis scores”.
